Measured values taken from patent publication US20240200091A1, “USE OF PROTOPORPHYRINOGEN OXIDASE” (BEIJING DABEINONG BIOTECHNOLOGY CO., LTD., priority 2021, published 2024).

B1: PPO7A: nucleotide sequence encoding microbial protoporphyrinogen oxidase PPO7 (SEQ ID NO:7), Arabidopsis thaliana/soybean common codon usage bias (nucleic acid)
DNA: ATGGATAAGATATTAGTCCTGTACAGTAGTCAAGATGGGCAGACGAGGAAGATTGTTGATGCAATGCTTGAAGAAATCTCTGGTTGTGATGTTGTGATTCAAGACTTGCACACACTACCGAAATGCAACCTATCCAAATATGCGAAAGTGTTGATTGGTGCTTCCATAAGGTATGGAAACTTCCATCCTTCTCTTCTCAGCTTCATCAATGCTCATCATGAACAACTTGAGGTTGCTAATGCGGCCTTCTTCTGTGTAAATCTCACTGCCCGAAAACCTGAGAAGCAAACTCCCCAGACAAACGCTTACATGAAGAAGTTTTTACGCTTATCACCATGGAAACCAAAGACCCTTGGAGTGTTTGCAGGAGCTTTGCAATATTCAAGATACAATTGGTGGCAAACCCGTATCATTCAGCTGATAATGAAAATGACTGGTGGCTCAACAGACACATCTCAGGATTTGGAGTTTACTGATTGGGTTAAAGTCCGGTCGTTTGCAAGAGAATTTTGGAGCAAGAGATGA
modifications: The nucleotide sequence of PPO7A
B2: PPO5A: nucleotide sequence encoding microbial protoporphyrinogen oxidase PPO5 (SEQ ID NO:5), Arabidopsis thaliana/soybean common codon usage bias (nucleic acid)
DNA: ATGAAGACTCTTATCCTCTACTTCACAACAGACGGCCAAACGAAAAAGATTGCCGAGAGACTGGCTGATGTGATTACTCATGAAGTGGAGCTAATCTCCTTGAAAGATCAAGCTGTTGATTTTGCTCAGAAGATGGCTAATGTTGACCAAGTAGTCATTGGAGCGAGTATAAGGTATGGTCACTTCAGCCCTCTTGTTTATCAGTTTATTGAACAACATTATGCAATGTTGAATGAGAAGAAAACCGCTTTTTATGGAGTGAATCTCACAGCAAGGAAAGCAAATCGAAACACCCCAACCACAAATACTTACATCCGGAACTTCTTAGCAAAGGTGAAATGGCAACCTAACTATGTTGAGGTCATAGCTGGTGCCTTGTTTTACCCGCGTTACAGATTCATTGATAGAATGATGATTCGCTTCATCATGAAAGTAACGAAAGGAGAAACTGATGTTTCAAAAGAATATGAATACACAAACTGGCAGCAAGTTGAAGAGTTTGGGAAGAAGCTTTCTGATCAGTTAATATGA
modifications: PPO5A Nucleotide Sequence
B3: PPO9A: nucleotide sequence encoding microbial protoporphyrinogen oxidase PPO9 (SEQ ID NO:9), Arabidopsis thaliana/soybean common codon usage bias (nucleic acid)
DNA: ATGGAGAAAGTTCTTCTACTGCATTCTTCCTCTGATGGTCAGACAGTGAAGATTCTCAGACATATTGAAACAACATTAGGTGGTGATTACCAATGTGAGCTTGTGGATTTGAATACTCTGCCGACTGTTGATTTTGCTGATTATGACCGTGTCTTAGTAGGCGCGAGTATACGCTATGGGCACCTCAACAAGAAACTCTACCAGTTTATAGAGAGATACAGAGATGAATTGGACCAAAACAAAGTAGGTTTCTTCTGCGTGAATCTTACTGCAAGGAAAGAAGGAAAGAATACGCCTGAGACTAGCGTTTACATGAAGACCTTTTTGAAGAAGTCGCCATGGTGTCCAAAATTGCAAGAAGTTTTCGCTGGAGCTCTTCGTTATCCTCGGTATGGATGGTTTGATAGGGTCATGATTCAGTTCATCATGAGAATCACGGGGGGAGAAACCGACACATCAAAAGAGGTTGAGTATACTGATTGGCAAAAGGTTGAAGCTTTTGCAGCCCGATTCAAACATTACTGA
modifications: The nucleotide sequence of PPO9A

tested on: Arabidopsis thaliana T1 plants; assay: sulfentrazone tolerance of transgenic Arabidopsis thaliana T1 plants (spray, grade of pesticide damage); format: in vivo; details: sulfentrazone 450 g ai/ha (1×), 7 DAT, number of plants of 24 per genotype, grades
Procedure, shortened: (§1)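 Read-out: injury grade at 7 DAT from injured vs total leaf area (0 = as water-sprayed; 1 = <10%; 3 = 100%); grades 0–1 were rated highly resistant. Plants were 18-day-old glufosinate-selected PPO-transgenic T1 lines plus controls, n = 24 per genotype. Doses: saflufenacil 25/100, sulfentrazone 450/900, flumioxazin 60/240, oxyfluorfen 180/720 g ai/ha.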

Molecule	The grade of pesticide: grade 0	The grade of pesticide: grade 1	The grade of pesticide: grade 2	The grade of pesticide: grade 3
B1	24	0	0	0
B2	24	0	0	0
B3	24	0	0	0

same assay, conditions: sulfentrazone 900 g ai/ha (2×), 7 DAT, number of plants of 24 per genotype, grades

Molecule	The grade of pesticide: grade 0	The grade of pesticide: grade 1	The grade of pesticide: grade 2	The grade of pesticide: grade 3
B1	22	2	0	0
B2	20	4	0	0
B3	18	6	0	0

tested on: Arabidopsis thaliana T1 plants; assay: saflufenacil tolerance of transgenic Arabidopsis thaliana T1 plants (spray, grade of pesticide damage); format: in vivo; details: saflufenacil 25 g ai/ha (1×), 7 DAT, number of plants of 24 per genotype, grades
Procedure, shortened: as §1

Molecule	The grade of pesticide damage/plant: grade 0 [plant]	The grade of pesticide damage/plant: grade 1 [plant]	The grade of pesticide damage/plant: grade 2 [plant]	The grade of pesticide damage/plant: grade 3 [plant]
B1	24	0	0	0
B2	24	0	0	0
B3	24	0	0	0

same assay, conditions: saflufenacil 100 g ai/ha (4×), 7 DAT, number of plants of 24 per genotype, grades

Molecule	The grade of pesticide damage/plant: grade 0 [plant]	The grade of pesticide damage/plant: grade 1 [plant]	The grade of pesticide damage/plant: grade 2 [plant]	The grade of pesticide damage/plant: grade 3 [plant]
B1	4	20	0	0
B2	0	24	0	0
B3	0	24	0	0

tested on: Arabidopsis thaliana T1 plants; assay: oxyfluorfen tolerance of transgenic Arabidopsis thaliana T1 plants (spray, grade of pesticide damage); format: in vivo; details: oxyfluorfen 180 g ai/ha (1×), 7 DAT, number of plants of 24 per genotype, grades
Procedure, shortened: as §1

Molecule	The grade of pesticide damage/plant: grade 0 [plant]	The grade of pesticide damage/plant: grade 1 [plant]	The grade of pesticide damage/plant: grade 2 [plant]	The grade of pesticide damage/plant: grade 3 [plant]
B1	24	0	0	0
B2	24	0	0	0
B3	24	0	0	0

same assay, conditions: oxyfluorfen 720 g ai/ha (4×), 7 DAT, number of plants of 24 per genotype, grades

Molecule	The grade of pesticide damage/plant: grade 0 [plant]	The grade of pesticide damage/plant: grade 1 [plant]	The grade of pesticide damage/plant: grade 2 [plant]	The grade of pesticide damage/plant: grade 3 [plant]
B1	20	4	0	0
B2	22	2	0	0
B3	20	4	0	0

tested on: Arabidopsis thaliana T1 plants; assay: flumioxazin tolerance of transgenic Arabidopsis thaliana T1 plants (spray, grade of pesticide damage); format: in vivo; details: flumioxazin 60 g ai/ha (1×), 7 DAT, number of plants of 24 per genotype, grades
Procedure, shortened: as §1

Molecule	The grade of pesticide damage/plant: grade 0 [plant]	The grade of pesticide damage/plant: grade 1 [plant]	The grade of pesticide damage/plant: grade 2 [plant]	The grade of pesticide damage/plant: grade 3 [plant]
B1	24	0	0	0
B2	24	0	0	0
B3	24	0	0	0

same assay, conditions: flumioxazin 240 g ai/ha (4×), 7 DAT, number of plants of 24 per genotype, grades

Molecule	The grade of pesticide damage/plant: grade 0 [plant]	The grade of pesticide damage/plant: grade 1 [plant]	The grade of pesticide damage/plant: grade 2 [plant]	The grade of pesticide damage/plant: grade 3 [plant]
B1	24	0	0	0
B2	21	3	0	0
B3	24	0	0	0
